Test results reported in PMC3814787, “Potential Regulatory Interactions of Escherichia coli RraA Protein with DEAD-box Helicases* ^([image sbox.jpg])” (The Journal of Biological Chemistry, 2013).

T1: DEAD-box helicase DbpA (Escherichia coli, UniProt P21693 1-457)
T1 construct: DbpA, DEAD-box RNA helicase, Escherichia coli; monomer of 49 kDa as printed; source: E. coli BL21(DE3), purified (ammonium sulfate precipitation, heparin column)
T1 sequence (looked up): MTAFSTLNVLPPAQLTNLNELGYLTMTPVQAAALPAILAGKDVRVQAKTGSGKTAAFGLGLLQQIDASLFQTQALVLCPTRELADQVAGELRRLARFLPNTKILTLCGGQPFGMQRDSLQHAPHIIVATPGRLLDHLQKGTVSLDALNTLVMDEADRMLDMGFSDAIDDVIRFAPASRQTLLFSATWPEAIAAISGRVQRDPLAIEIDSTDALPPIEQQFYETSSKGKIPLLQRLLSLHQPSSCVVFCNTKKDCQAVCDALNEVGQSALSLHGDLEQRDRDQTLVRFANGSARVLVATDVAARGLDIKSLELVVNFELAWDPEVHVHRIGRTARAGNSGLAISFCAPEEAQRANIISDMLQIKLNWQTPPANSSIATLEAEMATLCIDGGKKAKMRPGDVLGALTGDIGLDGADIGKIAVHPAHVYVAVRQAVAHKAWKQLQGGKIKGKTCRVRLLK

T2: DEAD-box helicase RhlE (Escherichia coli, UniProt P25888 1-454)
T2 construct: RhlE, DEAD-box RNA helicase, Escherichia coli; source: E. coli BL21(DE3), purified (ammonium sulfate precipitation, heparin column)
T2 sequence (looked up): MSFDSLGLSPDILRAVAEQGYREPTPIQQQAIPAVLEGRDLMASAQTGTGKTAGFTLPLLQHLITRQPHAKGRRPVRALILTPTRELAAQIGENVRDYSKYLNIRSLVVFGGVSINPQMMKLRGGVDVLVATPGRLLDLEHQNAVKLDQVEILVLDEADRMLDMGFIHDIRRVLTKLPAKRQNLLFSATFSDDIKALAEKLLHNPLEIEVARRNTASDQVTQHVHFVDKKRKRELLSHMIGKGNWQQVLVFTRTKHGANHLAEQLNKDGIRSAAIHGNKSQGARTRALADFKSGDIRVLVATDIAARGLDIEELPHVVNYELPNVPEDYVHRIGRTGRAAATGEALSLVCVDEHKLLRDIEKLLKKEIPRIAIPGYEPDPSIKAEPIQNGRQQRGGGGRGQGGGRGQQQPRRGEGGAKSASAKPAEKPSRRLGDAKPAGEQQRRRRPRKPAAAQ

B1: Regulator of ribonuclease activity A (RraA) (natural protein, Escherichia coli)
chain: MKYDTSELCDIYQEDVNVVEPLFSNFGGRASFGGQIITVKCFEDNGLLYDLLEQNGRGRVLVVDGGGSVRRALVDAELARLAVQNEWEGLVIYGAVRQVDDLEELDIGIQAMAAIPVGAAGEGIGESDVRVNFGGVTFFSGDHLYADNTGIILSEDPLDIE
notes: RraA, regulator of ribonuclease activity A, Escherichia coli; ring-shaped homotrimer (52 kDa); residues 2-159 modelled in the crystal; Trimer at 150 mM NaCl; about 100 kDa (hexamer) at 300 mM NaCl
B2: CsdAΔ (truncated CsdA, residues 1 to 443) (domain or fragment, Escherichia coli, UniProt P0A9P6 1-443, looked up)
chain: MAEFETTFADLGLKAPILEALNDLGYEKPSPIQAECIPHLLNGRDVLGMAQTGSGKTAAFSLPLLQNLDPELKAPQILVLAPTRELAVQVAEAMTDFSKHMRGVNVVALYGGQRYDVQLRALRQGPQIVVGTPGRLLDHLKRGTLDLSKLSGLVLDEADEMLRMGFIEDVETIMAQIPEGHQTALFSATMPEAIRRITRRFMKEPQEVRIQSSVTTRPDISQSYWTVWGMRKNEALVRFLEAEDFDAAIIFVRTKNATLEVAEALERNGYNSAALNGDMNQALREQTLERLKDGRLDILIATDVAARGLDVERISLVVNYDIPMDSESYVHRIGRTGRAGRAGRALLFVENRERRLLRNIERTMKLTIPEVELPNAELLGKRRLEKFAAKVQQQLESSDLDQYRALLSKIQPTAEGEELDLETLAAALLKMAQGERTLIVPPD
notes: CsdA (DeaD), DEAD-box RNA helicase, Escherichia coli, residues 1 to 443, without the C-terminal extension; Vector pROEX-HT, gift of M. Dreyfus and T. Bizebard; also called CsdA (DeaD); source: E. coli BL21(DE3), purified (HisTrap FF)
B3: DEAD-box helicase RhlB (enzyme, Escherichia coli, UniProt P0A8J8 1-421, looked up)
chain: MSKTHLTEQKFSDFALHPKVVEALEKKGFHNCTPIQALALPLTLAGRDVAGQAQTGTGKTMAFLTSTFHYLLSHPAIADRKVNQPRALIMAPTRELAVQIHADAEPLAEATGLKLGLAYGGDGYDKQLKVLESGVDILIGTTGRLIDYAKQNHINLGAIQVVVLDEADRMYDLGFIKDIRWLFRRMPPANQRLNMLFSATLSYRVRELAFEQMNNAEYIEVEPEQKTGHRIKEELFYPSNEEKMRLLQTLIEEEWPDRAIIFANTKHRCEEIWGHLAADGHRVGLLTGDVAQKKRLRILDEFTRGDLDILVATDVAARGLHIPAVTHVFNYDLPDDCEDYVHRIGRTGRAGASGHSISLACEEYALNLPAIETYIGHSIPVSKYNPDALMTDLPKPLRLTRPRTGNGPRRTGAPRNRRRSG
notes: RhlB, DEAD-box RNA helicase, Escherichia coli; monomer of 47 kDa as printed; The printed mass of 47 kDa fits the whole protein; 'full-length RhlB' is said only of the crystallisation trials
B4: DEAD-box helicase SrmB (enzyme, Escherichia coli, UniProt P21507 1-444, looked up)
chain: MTVTTFSELELDESLLEALQDKGFTRPTAIQAAAIPPALDGRDVLGSAPTGTGKTAAYLLPALQHLLDFPRKKSGPPRILILTPTRELAMQVSDHARELAKHTHLDIATITGGVAYMNHAEVFSENQDIVVATTGRLLQYIKEENFDCRAVETLILDEADRMLDMGFAQDIEHIAGETRWRKQTLLFSATLEGDAIQDFAERLLEDPVEVSANPSTRERKKIHQWYYRADDLEHKTALLVHLLKQPEATRSIVFVRKRERVHELANWLREAGINNCYLEGEMVQGKRNEAIKRLTEGRVNVLVATDVAARGIDIPDVSHVFNFDMPRSGDTYLHRIGRTARAGRKGTAISLVEAHDHLLLGKVGRYIEEPIKARVIDELRPKTRAPSEKQTGKPSKKVLAKRAEKKKAKEKEKPRVKKRHRDTKNIGKRRKPSGTGVPPQTTEE
notes: SrmB, DEAD-box RNA helicase, Escherichia coli; monomer of 50 kDa as printed; only residues 219-388 (C-terminal RecA-like domain) are resolved in the crystal; source: E. coli BL21(DE3), purified (ammonium sulfate precipitation, heparin column)

What was measured:
[1] = biological target: the molecule itself; test: crystal structure; RraA and RhlB(398-421) mixed at 1:20; 74.8 μM RraA, 1.48 mM peptide, 423 mM NaCl, 99 mM (NH4)2SO4; hanging drop, 16 °C; 100 mM sodium citrate pH 5.4, 32% methylpentanediol, 200 mM ammonium acetate; 2.8 Å
DEAD-box helicase DbpA = biological target: T1, DEAD-box helicase DbpA; test: AUC; sedimentation velocity, absorbance at 280 nm, 20 °C; 150 mM NaCl, 50 mM HEPES pH 7.5, 10% glycerol; mixtures at 1:1 helicase:RraA trimer, about 10 μM; conditions: both partners purified
[2] = biological target: the molecule itself; test: as above
DEAD-box helicase SrmB = biological target: B4; test: as above; conditions: both partners purified
DEAD-box helicase RhlE = biological target: T2, DEAD-box helicase RhlE; test: native gel or EMSA; 5% native polyacrylamide gel, Tris glycine running buffer with 1 mM DTT, 4 °C; helicase 10 μM and RraA 30 μM (2.5 and 7.5 μM for the mutants of Figure 3); bands of the complex cut out and analysed by SDS-PAGE; conditions: both partners purified
[3] = biological target: B2; test: as above; conditions: both partners purified
[4] = biological target: the molecule itself; test: AUC; sedimentation velocity, 20 °C; 300 mM NaCl, 50 mM HEPES pH 7.5, 10% glycerol, 2 mM tris(2-carboxyethyl)phosphine; experiments with CsdAΔ; about 10 μM
[5] = biological target: B1; test: AUC; sedimentation velocity, absorbance at 280 nm, 20 °C; 150 mM NaCl, 50 mM HEPES pH 7.5, 10% glycerol; mixtures at 1:1 helicase:RraA trimer, about 10 μM; conditions: both partners purified
[6] = biological target: B1; test: SAXS; SrmB and RraA mixed at a 1:3 molar ratio; 150 mM NaCl, 20 mM HEPES pH 7.0, 5% glycerol, 2 mM DTT; 15 °C; 5 to 55 μM; ab initio envelope; conditions: both partners purified

**Q.** What does the source list for B1?
**A.** stoichiometry N [1]: 6; binding result (DEAD-box helicase DbpA): binds; stoichiometry N [2]: 3; Kd (DEAD-box helicase SrmB): < 10 µM; binding result (DEAD-box helicase RhlE): binds; binding result [3]: binds

**Q.** Which “stoichiometry N” value [4] does the source give for B2 here?
**A.** Its value is 2.

**Q.** Which “stoichiometry N” value [5] does the source give for B3 here?
**A.** The value was 1 helicase monomer per RraA trimer.

**Q.** How did the “stoichiometry N” value [5] turn out when B4 was run?
**A.** The value was 1 helicase monomer per RraA trimer.

**Q.** What about the “stoichiometry N” value [6] of the same binder?
**A.** Its value is 1 SrmB per RraA trimer.
